Measured values reported in US20260151504A1, “SYNTHETIC CELLS COMPRISING TNF-RELATED APOPTOSIS-INDUCING LIGAND (TRAIL) AND METHODS OF USING THE SAME” (Slingshot Biosciences, Inc., priority 2023, published 2026).

Columns and labels:
streptavidin [1] = molecular target: streptavidin (UniProt P22629); test: flow cytometry, antibody staining of STV magnetic beads, BD Quantibrite PE standard curve
streptavidin [2] = molecular target: streptavidin (UniProt P22629); test: flow cytometry, antibody staining of STV porous hydrogel microspheres, BD Quantibrite PE standard curve
streptavidin [3] = molecular target: streptavidin (UniProt P22629); test: flow cytometry, antibody staining of STV smooth hydrogel microspheres, BD Quantibrite PE standard curve
[4] = molecular target: TRAIL receptors DR4 and/or DR5; test: cell-based or functional assay

streptavidin, sequence (P22629 37-163 limits assumed): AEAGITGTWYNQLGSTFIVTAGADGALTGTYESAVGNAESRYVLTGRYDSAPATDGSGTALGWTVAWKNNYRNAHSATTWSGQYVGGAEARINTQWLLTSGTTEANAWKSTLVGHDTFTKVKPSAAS

Substance “PE-anti-streptavidin antibody (BioLegend, clone: 3A20.2)” has a # of STV molecules/bead (molecules/bead) (streptavidin [1]) of 120000, a # of STV molecules/bead (molecules/bead) (streptavidin [2]) of 20100 and a # of STV molecules/bead (molecules/bead) (streptavidin [3]) of 20100.

Work on soluble TRAIL protein (ligand) yielded an Early Stage Apoptotic (7-AAD-/Annexin V+), Jeko-1, 24 Hrs.; Soluble TRAIL [4] of 35.8%, an Early Stage Apoptotic (7-AAD-/Annexin V+), Jeko-1, 48 Hrs.; Soluble TRAIL [4] of 9.88% and an Early Stage Apoptotic (7-AAD-/Annexin V+), Jurkat, 24 Hrs.; Soluble TRAIL [4] of 51.1%. For the same substance, the Early Stage Apoptotic (7-AAD-/Annexin V+), Jurkat, 48 Hrs.; Soluble TRAIL [4] was 20.4%, the Late Stage Apoptotic (7-AAD+/Annexin V+), Jeko-1, 24 Hrs.; Soluble TRAIL [4] was 26.4% and the Late Stage Apoptotic (7-AAD+/Annexin V+), Jeko-1, 48 Hrs.; Soluble TRAIL [4] was 59.7%. The Late Stage Apoptotic (7-AAD+/Annexin V+), Jurkat, 24 Hrs.; Soluble TRAIL [4] was 22.5%, the Late Stage Apoptotic (7-AAD+/Annexin V+), Jurkat, 48 Hrs.; Soluble TRAIL [4] was 56.9% and the Live Cells (7-AAD-/Annexin V-), Jeko-1, 24 Hrs.; Soluble TRAIL [4] was 37.8%. For the same substance, the Live Cells (7-AAD-/Annexin V-), Jeko-1, 48 Hrs.; Soluble TRAIL [4] was 30.2%, the Live Cells (7-AAD-/Annexin V-), Jurkat, 24 Hrs.; Soluble TRAIL [4] was 26.3% and the Live Cells (7-AAD-/Annexin V-), Jurkat, 48 Hrs.; Soluble TRAIL [4] was 21.3%. The Necrotic (7-AAD+/Annexin V-), Jeko-1, 24 Hrs.; Soluble TRAIL [4] was 0.076%, the Necrotic (7-AAD+/Annexin V-), Jeko-1, 48 Hrs.; Soluble TRAIL [4] was 0.16% and the Necrotic (7-AAD+/Annexin V-), Jurkat, 24 Hrs.; Soluble TRAIL [4] was 0.11%. The Necrotic (7-AAD+/Annexin V-), Jurkat, 48 Hrs.; Soluble TRAIL [4] was 1.42%, the percentage of apoptotic cells (Annexin V-positive), Jeko-1, 24 h; soluble TRAIL protein [4] was 60.7% and the percentage of apoptotic cells, Jeko-1, 48 hours; soluble TRAIL protein [4] was 69.8%. It also gave a percentage of apoptotic cells, Jurkat, 24 h; soluble TRAIL protein [4] of 72.9% and a percentage of apoptotic cells, Jurkat, 48 h; soluble TRAIL protein [4] of 73%.
